What is called Kd is a measure of binding affinity in units of concentration. The term koff denotes a measure of how fast the partners let go of each other. One may read the kon as the second-order rate constant of association. By EC50 is commonly meant the concentration needed to bring the measured effect to its halfway point. Read a high EC50 as a need for much substance.

Read-outs that look alike come from different tables or passages of the source.

The target of experiment [1] is T1, human fibroblast activation protein (huFAP) on cells (human, UniProt Q12884 1-760).
T1 construct: also called NIH/3T3-huFAP clone 39; NIH/3T3-huFAP clone 19
As to the kind of experiment: flow cytometry, NIH/3T3-huFAP clone 39 cells.

The target in experiment [2] is T2, human OX40 on cells (human, UniProt P43489 29-277).
T2 sequence: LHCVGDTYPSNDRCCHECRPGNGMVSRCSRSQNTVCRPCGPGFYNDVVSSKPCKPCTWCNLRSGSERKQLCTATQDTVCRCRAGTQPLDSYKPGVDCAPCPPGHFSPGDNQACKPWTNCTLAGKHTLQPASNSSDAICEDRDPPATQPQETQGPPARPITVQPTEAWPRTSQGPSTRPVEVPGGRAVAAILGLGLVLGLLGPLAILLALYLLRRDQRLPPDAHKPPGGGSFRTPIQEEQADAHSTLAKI
The experiment can be described thus: cell-based or functional assay.

In experiment [3] the target is T3, recombinant human OX40 His (human).
T3 construct: ectodomain with avi and hexahistidine tag; also called human Ox40 avi His
T3 chain: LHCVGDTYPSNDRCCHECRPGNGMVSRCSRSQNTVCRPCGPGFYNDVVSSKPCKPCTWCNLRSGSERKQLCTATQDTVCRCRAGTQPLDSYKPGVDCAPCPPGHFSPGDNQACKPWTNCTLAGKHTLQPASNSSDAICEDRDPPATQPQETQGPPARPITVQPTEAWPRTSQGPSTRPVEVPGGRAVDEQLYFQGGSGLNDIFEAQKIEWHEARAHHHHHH
As to the kind of experiment: SPR, captured IgG, OX40 His analyte. In general terms: SPR reads the build-up and loss of mass on a sensor chip optically.
Protocol: (§1) All SPR experiments were performed on a Biacore T200 at 25° C. with HBS-EP as running buffer (0.01 M HEPES pH 7.4, 0.15 M NaCl, 3 mM EDTA, 0.005% Surfactant P20, Biacore, Freiburg/Germany).
Setup 2) Anti-human Fc antibody (Biacore, Freiburg/Germany) was directly coupled on a CM5 chip at pH 5.0 using the standard amine coupling kit (Biacore, Freiburg/Germany). The immobilization level was approximately 8000 RU. […] The dissociation was monitored for 120 seconds. Bulk refractive index differences were corrected for by subtracting the response obtained on reference flow cell.

For experiment [4], the target named is recombinant cynomolgus OX40 Fc(kih) (cynomolgus, UniProt P0DOX5 223-449 = IgG part, biotin on C-terminal Avi tag where used biotinylated). The experiment can be described thus: SPR avidity format, antigen on SA chip.
Protocol: as §1
Immobilization levels up to 800 resonance units (RU) were used.
The target of experiment [5] is T2, human OX40 on cells. The experiment can be described thus: cell-based or functional assay. This is another data set of the same source.
Experiment [6] has as its target T4, cynomolgus OX40 on activated cynomolgus PBMC (cynomolgus, UniProt P43489 29-214 (human entry)).
T4 construct: whole, on cells
T4 chain: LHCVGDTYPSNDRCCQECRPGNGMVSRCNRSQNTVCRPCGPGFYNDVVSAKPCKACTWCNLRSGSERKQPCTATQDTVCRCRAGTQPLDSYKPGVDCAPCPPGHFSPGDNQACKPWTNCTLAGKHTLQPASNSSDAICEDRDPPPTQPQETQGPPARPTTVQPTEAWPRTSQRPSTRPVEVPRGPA
As to the kind of experiment: flow cytometry, activated cynomolgus CD4 T cells.
Protocol: Centrifugation was performed at 520×g, without brake at room temperature for 30 minutes. Adjacent centrifugation at 150×g at room temperature for 15 minutes was performed to reduce platelets count followed by several centrifugation steps with 400×g at room temperature for 10 minutes to wash PBMC with sterile DPBS.
(§2) Then, plates were washed four times with 200 μL/well 4° C. FACS buffer. […] Plates where washed twice with 200 μL/well 4° C.

The target of experiment [7] is T5, recombinant cynomolgus GITR Fc(kih) (cynomolgus, UniProt P0DOX5 223-449 = IgG part, biotin on C-terminal Avi tag where used biotinylated).
T5 construct: also called cy GITR-Fc
As to the kind of experiment: SPR ProteOn XPR36, biotinylated GITR-Fc on NLC chip, Fab analyte.
Protocol: (§3) Immobilization of antigens (ligand): Recombinant antigens were diluted with PBST (10 mM phosphate, 150 mM sodium chloride pH 7.4, 0.005% Tween 20) to 10 μg/ml, then injected at 30 μl/minute in vertical orientation. Injection of analytes: For ‘one-shot kinetics’ measurements, injection direction was changed to horizontal orientation, two-fold dilution series of purified Fab were injected simultaneously along separate channels 1-5, with association times of 200 s, and dissociation times of 240 s, respectively. Buffer (PBST) was injected along the sixth channel to provide an “in-line” blank for referencing. Association rate constants (kon) and dissociation rate constants (koff) were calculated using a simple one-to-one Langmuir binding model in ProteOn Manager software by simultaneously fitting the association and dissociation sensorgrams. The equilibrium dissociation constant (KD) was calculated as the ratio koff/kon.

For experiment [8], the target named is T6, recombinant human GITR Fc(kih) (human, UniProt P0DOX5 223-449 = IgG part, biotin on C-terminal Avi tag where used biotinylated).
T6 construct: also called hu GITR-Fc; human monomeric GITR-Fc fusion
The description is as above.
Protocol: as §3

Experiment [9] has as its target T7, recombinant murine GITR Fc(kih) (murine, UniProt P0DOX5 223-449 = IgG part, biotin on C-terminal Avi tag).
T7 construct: also called mu GITR-Fc
As to the kind of experiment: SPR ProteOn XPR36, Fab as analyte.
Protocol: as §3

Experiment [10] concerns the target T8, human FAP (His-tagged ectodomain) (human, UniProt Q12884 27-760).
T8 construct: SPR texts say 'human FAP' or 'His-tagged ... dimeric FAP'; also called hu FAP; human FAP (analyte 2)
The experiment can be described thus: SPR, human FAP as second analyte.

Experiment [11] deals with T4, cynomolgus OX40 on activated cynomolgus …. The experiment can be described thus: flow cytometry, activated cynomolgus CD4 T cells.
Protocol: as §2
The target in experiment [12] is T2, human OX40 on cells. The experiment can be described thus: flow cytometry, activated human CD4 T cells. For orientation: A flow cytometer gives signals particle by particle.
Experiment [13] deals with recombinant cynomolgus 4-1BB Fc(kih) (cynomolgus, UniProt P0DOX5 223-449 = IgG part, biotin on C-terminal Avi tag where used biotinylated). As to the kind of experiment: SPR, captured IgG, cyno 4-1BB Fc(kih) analyte.
Protocol: as §1
Anti-human Fab antibody (Biacore, Freiburg/Germany) was directly coupled on a CM5 chip at pH 5.0 using the standard amine coupling kit (Biacore, Freiburg/Germany). The immobilization level was approximately 9000 RU.
The target in experiment [14] is T1, human fibroblast activation protein …. As to the kind of experiment: flow cytometry, WM-266-4 and NIH/3T3-huFAP clone 19.
The target of experiment [15] is T9, mouse 4-1BB on activated mouse splenocytes (mouse, UniProt P20334 24-256). The experiment can be described thus: flow cytometry, activated mouse T cells.
Protocol: (§4) Cells were incubated for 30 min at 4° C., washed twice with 200 μL/well FACS-buffer and resuspended for fixation with 50 μL/well DPBS containing 1% (v/v) formaldehyde. The next day cells were resuspended in 200 μL/well FACS buffer and acquired using the 2-laser Cantoll (BD Bioscience with DIVA software) or 5-laser Fortessa (BD Bioscience with DIVA software). Gates were set on CD8⁺ and CD4⁺ T cells and the median fluorescence intensity (MFI) of the secondary detection antibody was used to analyze binding of primary antibodies. Using Graph Pad Prism (Graph Pad Software Inc.) data was baselined by subtracting the blank values (no primary antibody added) and the EC₅₀ values were calculated using non-linear regression curve fit (robust fit).
Experiment [16] has as its target T10, recombinant human 4-1BB Fc(kih) (human, UniProt P0DOX5 223-449 = IgG part, biotin on C-terminal Avi tag where used biotinylated).
T10 construct: also called hu4-1BB; biotinylated human 4-1BB
As to the kind of experiment: SPR, captured IgG, 4-1BB Fc(kih) analyte.
Protocol: as §1
Anti-human Fab antibody (Biacore, Freiburg/Germany) was directly coupled on a CM5 chip at pH 5.0 using the standard amine coupling kit (Biacore, Freiburg/Germany). The immobilization level was approximately 7500 RU. […] The dissociation was monitored for 120 seconds. Bulk refractive index differences were corrected for by subtracting the response obtained on reference flow cell.

The target in experiment [17] is T11, human 4-1BB on cells (human, UniProt Q07011 24-255).
T11 construct: also called HeLa-hu4-1BB-NF-kB-luc clone 26
As to the kind of experiment: flow cytometry, activated human CD8+ T cells.
Protocol: (§5) Plates were centrifuged 4 minutes with 400×g at 4° C. and supernatant was discarded. […] Afterwards cells were washed once with 200 μL/well cold FACS buffer (DPBS supplied with 2% (v/v) FBS, 5 mM EDTA pH8 (Amresco, Cat. No. E177) and 7.5 mM sodium azide (Sigma-Aldrich S2002)). […] Cells were washed four times with 200 μL/well 4° C.
Cells were washed twice with 200 μL FACS buffer/well and fixated by resuspending in 50 μL/well DPBS containing 1% Formaldehyde (Sigma, HT501320-9.5L). Cells were acquired the same or next day using 3-laser MACSQuant Analyzer 10 (Miltenyi Biotech). Gates were set on CD8⁺ and CD4⁺ T cells and the geo mean of fluorescence intensity (MFI) of the secondary detection antibody was used to analyze binding of primary antibodies. Using Graph Pad Prism (Graph Pad Software Inc.) data was baselined by subtracting the blank values (no primary antibody added) and the EC₅₀ values were calculated using non-linear regression curve fit (robust fit).

Experiment [18] addresses T11, human 4-1BB on cells. The experiment can be described thus: cell-based or functional assay.
The target in experiment [19] is T11, human 4-1BB on cells. As to the kind of experiment: flow cytometry, activated human CD8 T cells.
Protocol: as §5
Cells were washed twice with 200 μL FACS buffer/well and fixated by resuspending in 50 μL/well DPBS containing 1% Formaldehyde (Sigma, HT501320-9.5L). Cells were acquired the same or next day using a 3-laser Canto II (BD Bioscience with DIVA software) or a 5-laser Fortessa (BD Bioscience with DIVA software) or 3-laser MACSQuant Analyzer 10 (Miltenyi Biotech). Gates were set on CD8⁺ and CD4⁺ T cells and the median fluorescence intensity (MFI) or geo mean of fluorescence intensity of the secondary detection antibody was used to analyze binding of primary antibodies. Using Graph Pad Prism (Graph Pad Software Inc.) data was baselined by subtracting the blank values (no primary antibody added) and the EC50 values were calculated using non-linear regression curve fit (robust fit).
Experiment [20] has as its target T12, cynomolgus 4-1BB on activated cynomolgus PBMC (cynomolgus, UniProt Q07011 24-255 (human entry)).
T12 chain: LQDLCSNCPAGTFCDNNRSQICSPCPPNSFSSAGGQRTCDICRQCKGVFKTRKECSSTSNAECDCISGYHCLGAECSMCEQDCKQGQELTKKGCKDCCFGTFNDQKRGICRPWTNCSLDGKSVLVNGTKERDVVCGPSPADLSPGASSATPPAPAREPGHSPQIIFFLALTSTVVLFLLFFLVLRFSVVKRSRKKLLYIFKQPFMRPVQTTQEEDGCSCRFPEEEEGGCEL
As to the kind of experiment: flow cytometry, activated cynomolgus CD4 T cells.
Protocol: (§6) Cells were washed twice with FACS buffer and resuspended in 100 μL/well FACS buffer supplied with 0.2 μg/mL DAPI to discriminated dead from living cells. Cells were immediately acquired using a 5-laser Fortessa (BD Bioscience with DIVA software). Gates were set on CD8⁺ and CD4⁺ T cells and the median fluorescence intensity (MFI) of the secondary detection antibody was used to analyze binding of primary antibodies. Using Graph Pad Prism (Graph Pad Software Inc.) data was baselined by subtracting the blank values (no primary antibody added) and the EC₅₀ values were calculated using non-linear regression curve fit (robust fit).

Experiment [21] addresses T12, cynomolgus 4-1BB on activated …. The experiment can be described thus: flow cytometry, activated cynomolgus CD8 T cells.
Protocol: as §6
The target in experiment [22] is T13, hu4-1BB-SNAP fusion protein on Hek293 EBNA cells (human, UniProt Q07011 24-255, labeled with the FRET donor Terbium).
T13 construct: not shown: SNAP tag
The experiment can be described thus: cell FRET competition against d2-labeled anti-4-1BB tracer, 4 h.

In experiment [23] the target is T14, recombinant murine 4-1BB AcTEV (murine, UniProt P20334 24-187).
T14 construct: murine 4-1BB Fc(kih) cleaved with AcTEV protease, Fc removed
T14 sequence: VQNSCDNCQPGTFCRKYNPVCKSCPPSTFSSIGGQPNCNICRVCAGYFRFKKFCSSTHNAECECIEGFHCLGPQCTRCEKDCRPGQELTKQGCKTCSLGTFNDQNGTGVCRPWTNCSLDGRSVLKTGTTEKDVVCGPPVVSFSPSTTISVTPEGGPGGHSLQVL
As to the kind of experiment: SPR, captured IgG, murine 4-1BB AcTEV analyte.
Protocol: as §1
Anti-human Fc antibody (Biacore, Freiburg/Germany) was directly coupled on a CM5 chip at pH 5.0 using the standard amine coupling kit (Biacore, Freiburg/Germany). The immobilization level was about 7500 RU. […] The dissociation was monitored for 120 seconds. Bulk refractive index differences were corrected for by subtracting the response obtained on reference flow cell.

For experiment [24], the target named is T15, recombinant murine 4-1BB Fc(kih) (murine, UniProt P0DOX5 223-449 = IgG part, biotin on C-terminal Avi tag where used biotinylated).
T15 construct: also called mu4-1BB
As to the kind of experiment: SPR avidity format, murine 4-1BB Fc(kih) on SA chip.
Description: (§7) Immobilization levels up to 100 resonance units (RU) were used. […] Complex dissociation was monitored for 220 seconds. Bulk refractive index differences were corrected for by subtracting the response obtained in a reference flow cell, where no protein was immobilized.

Experiment [25] addresses T11, human 4-1BB on cells. As to the kind of experiment: flow cytometry, activated human T cells.
Experiment [26] addresses T10, recombinant human 4-1BB Fc(kih). As to the kind of experiment: SPR.
Protocol: as §1, §7
Experiment [27] addresses T9, mouse 4-1BB on activated mouse …. As to the kind of experiment: flow cytometry, activated murine CD4 T cells.
Protocol: as §4
For experiment [28] the target is unchanged. The experiment can be described thus: flow cytometry, activated murine CD8 T cells.
Protocol: as §4

B1: 1G4 P329GLALA IgG1 (antibody, V domains shown)
VH: QVQLVQSGAEVKKPGSSVKVSCKASGGTFSSYAISWVRQAPGQGLEWMGGIIPIFGTANYAQKFQGRVTITADKSTSTAYMELSSLRSEDTAVYYCAREYGSMDYWGQGTTVTVSS
VL: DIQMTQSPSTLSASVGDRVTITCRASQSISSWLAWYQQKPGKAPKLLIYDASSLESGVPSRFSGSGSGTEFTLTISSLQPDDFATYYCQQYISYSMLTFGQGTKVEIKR
notes: anti-OX40
For the molecule B1, the binding result in experiment [1] is listed as “no binding”. Also, in the experiment with human OX40 on cells [2], the “EC50 of NFκB activation in HeLa_hOx40_NFκB_luc1 reporter cells with secondary anti-human IgG Fcγ antibody” value stood at 3.59 nM. In experiment [3], the Kd is 250 nM, the koff amounted to 0.57 s⁻¹ and the kon was found to be 2.3e+06 M⁻¹ s⁻¹. Further, in [4], the binding result is “binds”. Also, in the experiment with human OX40 on cells [5], the “EC50 of rescuing suboptimal TCR stimulation with plate-immobilized anti-OX40 binder (preactivated human CD4 T cells)” value was 0.697 nM. This molecule showed a half-maximal effective concentration (EC50) in [6] of 48.2 nM.

B2: clone 8A06 purified Fab (Fab, V domains shown)
VH: QVQLVQSGAEVKKPGSSVKVSCKASGGTFSSYAISWVRQAPGQGLEWMGGIIPIFGTANYAQKFQGRVTITADKSTSTAYMELSSLRSEDTAVYYCARGYYAIDYWGQGTTVTVSS
VL: SSELTQDPAVSVALGQTVRITCQGDSLRSYYASWYQQKPGQAPVLVIYGKNNRPSGIPDRFSGSSSGNTASLTITGAQAEDEADYYCNSPQTSGSAVFGGGTKLTVL
notes: bacterially expressed Fab of the lambda-DP88 library with CH1/CL and tags; also called 8A06 (Fab-format)
Turning to B2, the Kd in experiment [7] was determined as 67 nM; in [8] it was 4.4 nM. The binding result in experiment [9] is listed as “no binding”.

B3: OX40(49B4)/DP47 P329GLALA IgG1 4+2 (bispecific antibody)
heavy: not shown
light 1: DIQMTQSPSTLSASVGDRVTITCRASQSISSWLAWYQQKPGKAPKLLIYDASSLESGVPSRFSGSGSGTEFTLTISSLQPDDFATYYCQQYSSQPYTFGQGTKVEIKRTVAAPSVFIFPPSDRKLKSGTASVVCLLNNFYPREAKVQWKVDNALQSGNSQESVTEQDSKDSTYSLSSTLTLSKADYEKHKVYACEVTHQGLSSPVTKSFNRGEC
light 2: not shown
notes: also called 4+2 (49B4/DP47); untargeted 4+2 construct
As for B3, the binding result in experiment [10] is recorded as “no binding (tested: 250 nM)”. The EC50 in experiment [11] is 0.07 nM; in the experiment with human OX40 on cells [12], 0.11 nM.

B4: 12B3 P329GLALA IgG1 (antibody, V domains shown)
VH: QVQLVQSGAEVKKPGSSVKVSCKASGGTFSSYAISWVRQAPGQGLEWMGGIIPIFGTANYAQKFQGRVTITADKSTSTAYMELSSLRSEDTAVYYCARSEFRFYADFDYWGQGTTVTVSS
VL: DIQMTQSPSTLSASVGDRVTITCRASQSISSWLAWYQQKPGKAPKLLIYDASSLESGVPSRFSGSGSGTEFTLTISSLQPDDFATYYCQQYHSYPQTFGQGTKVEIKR
notes: anti-4-1BB; also called 12B3 IgG; 12B3 huIgG1 P329G LALA
Take B4: the Kd is 20 nM in [13] and 30 nM in [16]. Moreover, the koff in experiment [13] turned out to be 0.00078 s⁻¹; in experiment [16] it was 0.001 s⁻¹. Further, the results for the kon in experiment [13] and in experiment [16] were 38000 M⁻¹ s⁻¹ and 34000 M⁻¹ s⁻¹, respectively. The binding result in experiment [14] and in [15] was “no binding” each time. In addition, the EC50 worked out at 0.4 nM with human 4-1BB on cells [17]; 0.95 nM with human 4-1BB on cells [19]; 0.59 nM in [20]; 0.47 nM in [21]; 1.4 nM in experiment [22]. In addition, the “EC50 of increase of IFNγ secretion in activated CD8+ T cells (surface-immobilized IgG)” value with human 4-1BB on cells [18] worked out at 0.07 nM. Moreover, the “bracketed interval of the EC50 (not explained)” value in [22] lay within 0.9 to 2.1 nM.

B5: 20G2 P329GLALA IgG1 (antibody, V domains shown)
VH: QVQLVQSGAEVKKPGSSVKVSCKASGGTFSSYAISWVRQAPGQGLEWMGGIIPIFGTANYAQKFQGRVTITADKSTSTAYMELSSLRSEDTAVYYCARSYYWESYPFDYWGQGTTVTVSS
VL: DIQMTQSPSTLSASVGDRVTITCRASQSISSWLAWYQQKPGKAPKLLIYDASSLESGVPSRFSGSGSGTEFTLTISSLQPDDFATYYCQQQHSYYTFGQGTKVEIKR
notes: also called anti-mouse 4-1BB clone 20G2 huIgG1 P329G LALA
As to B5, the dissociation constant (Kd) in experiment [23] came out at 14 nM. Also, the dissociation rate constant (koff) in experiment [23] was 0.00034 s⁻¹. In [23], the kon turned out to be 24000 M⁻¹ s⁻¹. Besides, the binding result is reported as “binds” in [24], “no binding” with human 4-1BB on cells [25] and “no binding” in experiment [26]. Also, the values for the EC50 in experiment [27] and in experiment [28] were 10.1 nM and 16.4 nM, respectively.

(Values after patent US20220073646A1 (Hoffmann-La Roche, published 2022).)
